Target: Spike-Accum bioconjugate (Accum-bioconjugated Sp protein) (SARS-CoV-2) (UniProt P0DTC2)
Assay: cryo-EM structure

**Q.** How did the stoichiometry N turn out when “Spike-Accum bioconjugate (Accum-bioconjugated Sp protein) (from UniProt P0DTC2 14-1213)” was run?
**A.** 3
